pKd: −log10 of the molar value.
Experiments:
[1] = target: BRD4-bromo2 domain (amino acids 351–457) (UniProt O60885); test: ITC; 3 mM H2A.Z peptides titrated into 0.3 mM bromodomains; 25 °C; 20 mM Hepes-Na pH 7.5, 100 mM NaCl; One Set of Binding Sites model
[2] = target: BRD4-bromo1 (amino acids 54–168) (UniProt O60885); test: as above

Substance “di-acetylated H2A.Z (1–15) K4acK7ac peptide (from UniProt P0C0S5 2-16)” has a pKd [1] of 3.09 and a pKd [2] of 2.32.
In the case of “tri-acetylated H2A.Z (1–15) K4acK7acK11ac peptide (from UniProt P0C0S5 2-16)”, the pKd [1] was 3.22 and the pKd [2] was 2.64.

Source: article PMC9033776
